Drawing on article PMC8169611, this text covers Kd for 1 substance.

This test has as its target mouse proIGF2 (insulin-like growth factor 2 pro-hormone) (mouse). Nature of the test: fluorescence polarisation. (Polarisation of emitted light reports the rotation of a fluorescent probe.)

The substance “mouse proIGF2 (insulin-like growth factor 2 pro-hormone) (natural protein)” came in with a Kd of 2980 nM.

In general, Kd refers to the constant that tells how readily two partners part at equilibrium.
